B1: GpH7-B3 variant E269_06M/GpL16-k0 (Ho Ab) (antibody, human IgG1, kappa)
heavy: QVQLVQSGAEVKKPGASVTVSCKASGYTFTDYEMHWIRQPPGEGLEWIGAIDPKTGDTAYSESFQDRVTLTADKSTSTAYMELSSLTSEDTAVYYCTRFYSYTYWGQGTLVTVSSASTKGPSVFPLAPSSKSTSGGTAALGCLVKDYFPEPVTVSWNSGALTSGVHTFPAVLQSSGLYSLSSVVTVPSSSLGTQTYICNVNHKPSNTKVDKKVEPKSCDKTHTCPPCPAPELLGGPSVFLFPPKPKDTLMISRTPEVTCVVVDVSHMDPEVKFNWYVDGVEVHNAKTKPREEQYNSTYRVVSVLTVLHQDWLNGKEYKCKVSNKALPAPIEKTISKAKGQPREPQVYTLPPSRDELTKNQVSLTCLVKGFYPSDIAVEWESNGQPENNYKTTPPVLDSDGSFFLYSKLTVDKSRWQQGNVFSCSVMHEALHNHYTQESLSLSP
light: DIVMTQSPLSLPVTPGEPASISCQASESLVHSNRNTYLHWYLQKPGQSPQLLIYKVSNRFSGVPDRFSGSGSGTDFTLKISRVEAEDVGVYYCSQNTHVPPTFGQGTKVEIERTVAAPSVFIFPPSDEQLKSGTASVVCLLNNFYPREAKVQWKVDNALQSGNSQESVTEQDSKDSTYSLSSTLTLSKADYEKHKVYACEVTHQGLSSPVTKSFNRGEC
notes: Ho Ab: alteration in both H chains
B2: GpH7-B3 variant P271_06M/GpL16-k0 (Ho Ab) (antibody, human IgG1, kappa)
heavy: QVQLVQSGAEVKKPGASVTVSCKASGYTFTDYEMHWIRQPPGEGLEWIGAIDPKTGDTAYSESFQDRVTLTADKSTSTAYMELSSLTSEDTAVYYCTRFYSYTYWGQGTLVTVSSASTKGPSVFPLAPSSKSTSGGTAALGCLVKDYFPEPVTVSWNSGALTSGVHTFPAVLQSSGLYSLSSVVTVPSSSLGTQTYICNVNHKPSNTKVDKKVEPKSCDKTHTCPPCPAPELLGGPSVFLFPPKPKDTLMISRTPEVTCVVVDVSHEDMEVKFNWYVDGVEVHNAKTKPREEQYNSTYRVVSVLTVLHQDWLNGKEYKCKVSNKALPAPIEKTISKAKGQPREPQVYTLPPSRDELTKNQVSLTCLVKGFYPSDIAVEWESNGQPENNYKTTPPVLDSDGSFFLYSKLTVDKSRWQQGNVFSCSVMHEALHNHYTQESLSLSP
light: B1 light
notes: as for B1
B3: GpH7-B3 variant Q295_18N/GpL16-k0 (Ho Ab) (antibody, human IgG1, kappa)
heavy: not shown
light: B1 light
notes: as for B1
B4: GpH7-B3 variant I336_10E/GpL16-k0 (Ho Ab) (antibody, human IgG1, kappa)
heavy: not shown
light: B1 light
notes: as for B1
B5: GpH7-B3 variant I336_03V/GpL16-k0 (Ho Ab) (antibody, human IgG1, kappa)
heavy: not shown
light: B1 light
notes: as for B1
B6: GpH7-B3 variant S267_03V/GpL16-k0 (Ho Ab) (antibody, human IgG1, kappa)
heavy: not shown
light: B1 light
notes: as for B1
B7: GpH7-B3 variant P271_20W/GpL16-k0 (Ho Ab) (antibody, human IgG1, kappa)
heavy: not shown
light: B1 light
notes: as for B1
B8: GpH7-B3 variant K326_15Y/GpL16-k0 (Ho Ab) (antibody, human IgG1, kappa)
heavy: not shown
light: B1 light
notes: as for B1
B9: GpH7-B3 variant I336_02A/GpL16-k0 (Ho Ab) (antibody, human IgG1, kappa)
heavy: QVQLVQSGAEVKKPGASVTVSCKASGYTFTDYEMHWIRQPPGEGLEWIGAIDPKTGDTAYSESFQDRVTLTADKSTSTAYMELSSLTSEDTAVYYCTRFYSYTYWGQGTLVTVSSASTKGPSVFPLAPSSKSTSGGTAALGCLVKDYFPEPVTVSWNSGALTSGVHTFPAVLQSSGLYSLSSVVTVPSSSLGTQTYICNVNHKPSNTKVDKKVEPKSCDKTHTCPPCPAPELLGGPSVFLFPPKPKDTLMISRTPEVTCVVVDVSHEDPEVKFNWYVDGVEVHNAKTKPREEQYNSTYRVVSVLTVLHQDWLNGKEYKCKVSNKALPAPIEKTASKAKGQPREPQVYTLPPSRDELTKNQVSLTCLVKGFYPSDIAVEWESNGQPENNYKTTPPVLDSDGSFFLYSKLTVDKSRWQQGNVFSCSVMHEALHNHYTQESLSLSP
light: B1 light
notes: as for B1
B10: GpH7-B3 variant S267_02A/GpL16-k0 (Ho Ab) (antibody, human IgG1, kappa)
heavy: not shown
light: B1 light
notes: as for B1
B11: GpH7-B3 variant G236_20W/GpL16-k0 (Ho Ab) (antibody, human IgG1, kappa)
heavy: not shown
light: B1 light
notes: as for B1
B12: GpH7-B3 variant S239_09D/GpL16-k0 (Ho Ab) (antibody, human IgG1, kappa)
heavy: not shown
light: B1 light
notes: Ho Ab: alteration in both H chains; also called GpH7-B3-06-09D/GpL16-k0
B13: GpH7-B3 variant P271_03V/GpL16-k0 (Ho Ab) (antibody, human IgG1, kappa)
heavy: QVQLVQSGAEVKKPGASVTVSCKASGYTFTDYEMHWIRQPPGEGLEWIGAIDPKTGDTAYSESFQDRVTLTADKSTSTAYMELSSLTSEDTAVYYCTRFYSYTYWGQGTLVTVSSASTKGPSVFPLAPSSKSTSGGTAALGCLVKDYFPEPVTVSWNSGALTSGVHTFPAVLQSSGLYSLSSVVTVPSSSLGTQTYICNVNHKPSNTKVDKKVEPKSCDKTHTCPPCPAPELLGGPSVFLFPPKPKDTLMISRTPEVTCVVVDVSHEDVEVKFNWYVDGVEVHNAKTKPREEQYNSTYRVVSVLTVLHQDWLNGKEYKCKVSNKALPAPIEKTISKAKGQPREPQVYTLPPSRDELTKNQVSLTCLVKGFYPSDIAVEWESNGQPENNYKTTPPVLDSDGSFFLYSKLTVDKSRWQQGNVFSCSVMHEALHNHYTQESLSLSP
light: B1 light
notes: as for B1
B14: GpH7-B3 variant P271_12R/GpL16-k0 (Ho Ab) (antibody, human IgG1, kappa)
heavy: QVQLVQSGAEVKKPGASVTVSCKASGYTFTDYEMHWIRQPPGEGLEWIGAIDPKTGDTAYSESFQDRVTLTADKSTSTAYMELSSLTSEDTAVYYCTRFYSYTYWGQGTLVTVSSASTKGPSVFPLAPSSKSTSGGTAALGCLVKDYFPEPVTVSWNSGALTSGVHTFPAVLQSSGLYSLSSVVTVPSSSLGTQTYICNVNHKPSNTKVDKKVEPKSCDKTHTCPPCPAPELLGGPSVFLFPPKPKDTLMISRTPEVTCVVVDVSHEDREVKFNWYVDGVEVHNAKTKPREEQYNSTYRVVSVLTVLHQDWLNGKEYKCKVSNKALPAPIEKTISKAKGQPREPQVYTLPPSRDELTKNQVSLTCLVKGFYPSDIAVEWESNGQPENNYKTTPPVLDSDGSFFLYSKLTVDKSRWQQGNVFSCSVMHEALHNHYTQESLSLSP
light: B1 light
notes: as for B1
B15: GpH7-B3 variant Q295_03V/GpL16-k0 (Ho Ab) (antibody, human IgG1, kappa)
heavy: not shown
light: B1 light
notes: as for B1
B16: GpH7-B3 variant I336_04F/GpL16-k0 (Ho Ab) (antibody, human IgG1, kappa)
heavy: not shown
light: B1 light
notes: as for B1
B17: GpH7-B3 variant P271_04F/GpL16-k0 (Ho Ab) (antibody, human IgG1, kappa)
heavy: not shown
light: B1 light
notes: as for B1
B18: GpH7-B3 variant K334_10E/GpL16-k0 (Ho Ab) (antibody, human IgG1, kappa)
heavy: not shown
light: B1 light
notes: as for B1
B19: GpH7-B3 variant S298_03V/GpL16-k0 (Ho Ab) (antibody, human IgG1, kappa)
heavy: not shown
light: B1 light
notes: as for B1
B20: GpH7-B3 variant Q295_13S/GpL16-k0 (Ho Ab) (antibody, human IgG1, kappa)
heavy: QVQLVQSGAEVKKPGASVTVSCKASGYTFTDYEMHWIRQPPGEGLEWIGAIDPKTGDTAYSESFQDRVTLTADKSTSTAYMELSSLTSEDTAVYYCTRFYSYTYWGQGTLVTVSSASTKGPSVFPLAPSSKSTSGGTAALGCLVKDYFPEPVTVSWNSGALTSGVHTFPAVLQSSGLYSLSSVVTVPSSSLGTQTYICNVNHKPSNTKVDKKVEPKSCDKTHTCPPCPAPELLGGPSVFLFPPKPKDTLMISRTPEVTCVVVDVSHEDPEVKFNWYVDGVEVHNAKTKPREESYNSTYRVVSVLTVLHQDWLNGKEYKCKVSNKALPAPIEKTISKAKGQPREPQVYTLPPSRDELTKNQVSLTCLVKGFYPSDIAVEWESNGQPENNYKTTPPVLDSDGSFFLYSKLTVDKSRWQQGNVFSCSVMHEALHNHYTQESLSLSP
light: B1 light
notes: as for B1
B21: GpH7-B3 variant Q295_02A/GpL16-k0 (Ho Ab) (antibody, human IgG1, kappa)
heavy: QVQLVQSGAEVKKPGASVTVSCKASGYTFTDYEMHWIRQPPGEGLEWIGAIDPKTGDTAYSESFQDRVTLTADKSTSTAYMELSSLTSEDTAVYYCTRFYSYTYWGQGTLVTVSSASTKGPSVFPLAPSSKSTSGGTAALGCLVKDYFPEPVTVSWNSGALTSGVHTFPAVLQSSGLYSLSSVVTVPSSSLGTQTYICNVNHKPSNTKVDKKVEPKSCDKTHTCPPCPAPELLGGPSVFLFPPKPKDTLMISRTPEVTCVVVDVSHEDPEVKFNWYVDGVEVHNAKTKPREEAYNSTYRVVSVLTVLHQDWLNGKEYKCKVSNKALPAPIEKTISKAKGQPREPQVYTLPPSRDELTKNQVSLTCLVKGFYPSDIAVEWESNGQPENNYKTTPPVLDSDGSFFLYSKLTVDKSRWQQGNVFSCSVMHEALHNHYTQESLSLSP
light: B1 light
notes: as for B1
B22: GpH7-B3 variant S267_01G/GpL16-k0 (Ho Ab) (antibody, human IgG1, kappa)
heavy: not shown
light: B1 light
notes: as for B1
B23: GpH7-B3 variant S267_09D/GpL16-k0 (Ho Ab) (antibody, human IgG1, kappa)
heavy: not shown
light: B1 light
notes: as for B1
B24: GpH7-B3 variant I336_06M/GpL16-k0 (Ho Ab) (antibody, human IgG1, kappa)
heavy: not shown
light: B1 light
notes: as for B1
B25: GpH7-B3 variant Q295_04F/GpL16-k0 (Ho Ab) (antibody, human IgG1, kappa)
heavy: not shown
light: B1 light
notes: as for B1
B26: GpH7-B3 variant P271_13S/GpL16-k0 (Ho Ab) (antibody, human IgG1, kappa)
heavy: not shown
light: B1 light
notes: as for B1
B27: GpH7-B3 variant Q295_05P/GpL16-k0 (Ho Ab) (antibody, human IgG1, kappa)
heavy: not shown
light: B1 light
notes: as for B1
B28: GpH7-B3 variant I336_01G/GpL16-k0 (Ho Ab) (antibody, human IgG1, kappa)
heavy: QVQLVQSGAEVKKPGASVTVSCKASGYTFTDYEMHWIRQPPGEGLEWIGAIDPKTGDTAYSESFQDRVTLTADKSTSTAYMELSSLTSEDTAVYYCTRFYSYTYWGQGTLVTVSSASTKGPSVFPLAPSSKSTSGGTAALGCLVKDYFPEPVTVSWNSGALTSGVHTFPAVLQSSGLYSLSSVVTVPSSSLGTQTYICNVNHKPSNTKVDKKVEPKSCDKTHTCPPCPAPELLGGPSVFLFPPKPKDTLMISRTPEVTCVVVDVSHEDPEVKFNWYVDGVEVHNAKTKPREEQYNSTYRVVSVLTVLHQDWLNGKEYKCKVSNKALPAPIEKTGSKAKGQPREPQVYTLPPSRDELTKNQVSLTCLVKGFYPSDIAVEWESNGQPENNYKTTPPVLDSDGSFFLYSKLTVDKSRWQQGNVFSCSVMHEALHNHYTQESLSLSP
light: B1 light
notes: as for B1
B29: GpH7-B3 variant Q295_07I/GpL16-k0 (Ho Ab) (antibody, human IgG1, kappa)
heavy: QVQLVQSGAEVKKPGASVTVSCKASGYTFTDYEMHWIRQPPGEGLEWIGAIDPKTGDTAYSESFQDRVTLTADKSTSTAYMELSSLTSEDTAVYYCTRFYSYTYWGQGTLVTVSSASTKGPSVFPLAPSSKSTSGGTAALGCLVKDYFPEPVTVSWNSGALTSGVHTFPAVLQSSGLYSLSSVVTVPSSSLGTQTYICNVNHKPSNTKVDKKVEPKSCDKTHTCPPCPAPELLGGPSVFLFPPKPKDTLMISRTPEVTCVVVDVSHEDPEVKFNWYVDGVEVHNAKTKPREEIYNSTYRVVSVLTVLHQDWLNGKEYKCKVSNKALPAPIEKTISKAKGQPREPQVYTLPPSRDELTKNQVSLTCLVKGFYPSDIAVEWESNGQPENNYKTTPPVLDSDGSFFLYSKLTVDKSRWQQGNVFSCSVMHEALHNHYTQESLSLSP
light: B1 light
notes: as for B1
B30: GpH7-B3 variant E333_13S/GpL16-k0 (Ho Ab) (antibody, human IgG1, kappa)
heavy: not shown
light: B1 light
notes: as for B1
B31: GpH7-B3 variant K326_14T/GpL16-k0 (Ho Ab) (antibody, human IgG1, kappa)
heavy: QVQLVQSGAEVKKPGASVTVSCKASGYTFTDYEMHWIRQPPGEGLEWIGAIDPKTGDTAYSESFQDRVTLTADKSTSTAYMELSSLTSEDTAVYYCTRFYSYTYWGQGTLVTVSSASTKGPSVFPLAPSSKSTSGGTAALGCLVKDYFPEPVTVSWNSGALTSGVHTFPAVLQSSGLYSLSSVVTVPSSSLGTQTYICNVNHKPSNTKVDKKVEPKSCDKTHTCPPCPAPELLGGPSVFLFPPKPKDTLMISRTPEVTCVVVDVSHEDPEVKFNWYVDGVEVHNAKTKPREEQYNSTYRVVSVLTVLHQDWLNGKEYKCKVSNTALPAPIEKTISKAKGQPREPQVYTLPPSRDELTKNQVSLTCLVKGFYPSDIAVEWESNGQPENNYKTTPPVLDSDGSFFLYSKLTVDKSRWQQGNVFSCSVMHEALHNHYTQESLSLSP
light: B1 light
notes: as for B1
B32: GpH7-B3 variant E333_01G/GpL16-k0 (Ho Ab) (antibody, human IgG1, kappa)
heavy: not shown
light: B1 light
notes: as for B1
B33: GpH7-B3 variant K326_16H/GpL16-k0 (Ho Ab) (antibody, human IgG1, kappa)
heavy: not shown
light: B1 light
notes: as for B1
B34: GpH7-B3 variant P271_07I/GpL16-k0 (Ho Ab) (antibody, human IgG1, kappa)
heavy: not shown
light: B1 light
notes: as for B1
B35: GpH7-B3 variant P271_11K/GpL16-k0 (Ho Ab) (antibody, human IgG1, kappa)
heavy: not shown
light: B1 light
notes: as for B1
B36: GpH7-B3 variant E269_15Y/GpL16-k0 (Ho Ab) (antibody, human IgG1, kappa)
heavy: not shown
light: B1 light
notes: as for B1
B37: GpH7-B3 variant Q295_14T/GpL16-k0 (Ho Ab) (antibody, human IgG1, kappa)
heavy: not shown
light: B1 light
notes: as for B1
B38: GpH7-B3 variant S239_01G/GpL16-k0 (Ho Ab) (antibody, human IgG1, kappa)
heavy: not shown
light: B1 light
notes: as for B1
B39: GpH7-B3 variant E269_08L/GpL16-k0 (Ho Ab) (antibody, human IgG1, kappa)
heavy: not shown
light: B1 light
notes: as for B1
B40: GpH7-B3 variant I336_18N/GpL16-k0 (Ho Ab) (antibody, human IgG1, kappa)
heavy: not shown
light: B1 light
notes: as for B1

The test deals with T1, FcγRIa extracellular domain with C-terminal His tag (human, UniProt P12314 16-292).
T1 construct: extracellular domain; Expressed in FreeStyle293 cells; analyte in Biacore; also called FcgRI; FcgRIa
T1 sequence (P12314 16-292): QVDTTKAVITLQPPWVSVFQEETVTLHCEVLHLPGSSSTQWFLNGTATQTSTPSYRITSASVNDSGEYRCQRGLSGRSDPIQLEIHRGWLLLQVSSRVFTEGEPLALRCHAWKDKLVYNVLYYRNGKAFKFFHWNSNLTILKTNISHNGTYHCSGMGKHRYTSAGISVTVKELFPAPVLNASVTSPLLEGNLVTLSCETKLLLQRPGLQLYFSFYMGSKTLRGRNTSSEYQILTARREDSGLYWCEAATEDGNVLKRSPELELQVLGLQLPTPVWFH
The test is described as follows: SPR Biacore, antibody captured, FcγRIa analyte; vs GpH7-B3/GpL16-k0 = 100.
B1: the Ho/Con_1a is 101 relative (control = 100).

In the case of B2, the Ho/Con_1a was 102 relative (control = 100).

B3: the Ho/Con_1a was 101 relative (control = 100).

On to B4, for which the Ho/Con_1a is 107 relative (control = 100).

Consider B5, for which the Ho/Con_1a was 105 relative (control = 100).

Consider B6, for which the Ho/Con_1a was 102 relative (control = 100).

Consider B7, for which the Ho/Con_1a was 102 relative (control = 100).

For the molecule B8, the Ho/Con_1a is 101 relative (control = 100).

For the molecule B9, the Ho/Con_1a is 103 relative (control = 100).

In the case of B10, the Ho/Con_1a was 108 relative (control = 100).

Turning to B11, the Ho/Con_1a is 104 relative (control = 100).

As for B12, the Ho/Con_1a is 101 relative (control = 100).

B13: the Ho/Con_1a is 102 relative (control = 100).

For the molecule B14, the Ho/Con_1a is 101 relative (control = 100).

In the case of B15, the Ho/Con_1a was 102 relative (control = 100).

With B16, the Ho/Con_1a was 104 relative (control = 100).

B17: the Ho/Con_1a is 100 relative (control = 100).

For B18, the Ho/Con_1a was 107 relative (control = 100).

B19: the Ho/Con_1a was 106 relative (control = 100).

B20: the Ho/Con_1a was 101 relative (control = 100).

As for B21, the Ho/Con_1a was 104 relative (control = 100).

On to B22, for which the Ho/Con_1a was 102 relative (control = 100).

As for B23, the Ho/Con_1a is 106 relative (control = 100).

For the molecule B24, the Ho/Con_1a was 104 relative (control = 100).

B25: the Ho/Con_1a was 100 relative (control = 100).

Regarding B26, the Ho/Con_1a was 101 relative (control = 100).

For B27, the Ho/Con_1a was 101 relative (control = 100).

For the molecule B28, the Ho/Con_1a was 104 relative (control = 100).

As for B29, the Ho/Con_1a is 101 relative (control = 100).

As to B30, the Ho/Con_1a was 101 relative (control = 100).

Consider B31, for which the Ho/Con_1a was 103 relative (control = 100).

For the molecule B32, the Ho/Con_1a was 100 relative (control = 100).

Turning to B33, the Ho/Con_1a is 101 relative (control = 100).

As to B34, the Ho/Con_1a was 102 relative (control = 100).

As to B35, the Ho/Con_1a was 101 relative (control = 100).

As for B36, the Ho/Con_1a is 100 relative (control = 100).

As for B37, the Ho/Con_1a is 102 relative (control = 100).

As for B38, the Ho/Con_1a was 101 relative (control = 100).

Take B39: the Ho/Con_1a is 101 relative (control = 100).

As to B40, the Ho/Con_1a is 104 relative (control = 100).

These data come from patent publication US20180155451A1 (published 2018).
